Reference: patent publication US10087225B2, “Formulation of MK2 inhibitor peptides” (MOERAE MATRIX, INC., priority 2015, dated 2018)

Experiments:
Experiment in all cases: Kinase Profiling Assay
Assay type in all cases: biochemical
Conditions in all cases: for % activity: 100 μM
[1] = target: MELK(h) (Homo sapiens, UniProt Q14680)
[2] = target: Met(Y1248H)(h) (Homo sapiens, UniProt P08581, Y1230H)
[3] = target: T1, PKG1β(h) (Homo sapiens, UniProt Q13976)
T1 sequence (Q13976 1-686 isoform Q13976-2): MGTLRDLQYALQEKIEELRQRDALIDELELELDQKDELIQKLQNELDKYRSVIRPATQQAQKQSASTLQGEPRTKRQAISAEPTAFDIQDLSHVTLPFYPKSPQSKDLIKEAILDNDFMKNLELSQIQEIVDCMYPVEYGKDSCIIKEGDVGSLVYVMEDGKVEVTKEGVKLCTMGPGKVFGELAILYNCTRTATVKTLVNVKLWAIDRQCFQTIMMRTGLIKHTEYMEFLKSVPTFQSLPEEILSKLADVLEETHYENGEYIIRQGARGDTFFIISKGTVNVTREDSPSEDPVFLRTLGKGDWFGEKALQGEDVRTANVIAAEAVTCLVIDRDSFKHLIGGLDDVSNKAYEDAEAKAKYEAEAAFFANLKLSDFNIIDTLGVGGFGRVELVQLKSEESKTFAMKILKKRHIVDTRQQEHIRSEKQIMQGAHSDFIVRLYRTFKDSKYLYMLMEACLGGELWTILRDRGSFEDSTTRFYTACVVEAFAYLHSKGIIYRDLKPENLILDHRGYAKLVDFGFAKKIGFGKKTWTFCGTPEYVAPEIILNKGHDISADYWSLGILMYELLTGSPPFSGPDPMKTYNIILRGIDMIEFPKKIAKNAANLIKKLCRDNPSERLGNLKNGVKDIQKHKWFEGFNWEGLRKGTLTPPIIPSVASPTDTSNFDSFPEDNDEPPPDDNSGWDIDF

[4] = target: T2, TSSK1(h) (Homo sapiens, UniProt Q9BXA7)
T2 sequence (Q9BXA7 1-367): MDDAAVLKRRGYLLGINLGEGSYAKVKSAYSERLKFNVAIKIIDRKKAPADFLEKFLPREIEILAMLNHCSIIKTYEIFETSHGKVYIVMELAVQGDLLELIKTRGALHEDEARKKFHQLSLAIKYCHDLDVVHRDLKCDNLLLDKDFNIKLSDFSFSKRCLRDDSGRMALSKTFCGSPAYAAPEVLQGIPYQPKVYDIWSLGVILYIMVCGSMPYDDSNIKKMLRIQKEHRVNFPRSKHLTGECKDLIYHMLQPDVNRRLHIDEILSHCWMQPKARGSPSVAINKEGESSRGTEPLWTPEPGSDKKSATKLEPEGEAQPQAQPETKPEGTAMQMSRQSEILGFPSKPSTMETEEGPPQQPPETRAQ

[5] = target: PASK(h) (Homo sapiens, UniProt Q96RG2)
[6] = target: Tie2(Y897S)(h) (Homo sapiens, UniProt Q02763, Y897S)
[7] = target: T3, ALK4(h) (Homo sapiens, UniProt P36896)
T3 sequence (P36896 24-505): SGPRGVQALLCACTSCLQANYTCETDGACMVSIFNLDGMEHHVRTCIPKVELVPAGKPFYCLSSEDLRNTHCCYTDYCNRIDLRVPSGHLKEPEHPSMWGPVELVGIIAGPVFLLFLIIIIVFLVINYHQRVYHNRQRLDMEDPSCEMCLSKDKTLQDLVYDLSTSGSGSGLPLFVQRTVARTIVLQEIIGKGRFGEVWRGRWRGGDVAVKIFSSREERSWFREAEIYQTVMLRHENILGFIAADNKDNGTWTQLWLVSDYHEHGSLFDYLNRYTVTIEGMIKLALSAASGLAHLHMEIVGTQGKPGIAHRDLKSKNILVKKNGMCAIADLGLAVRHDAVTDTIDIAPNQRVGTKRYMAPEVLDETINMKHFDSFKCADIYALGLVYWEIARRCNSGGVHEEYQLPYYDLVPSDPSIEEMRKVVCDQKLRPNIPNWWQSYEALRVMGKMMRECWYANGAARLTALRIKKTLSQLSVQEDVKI

[8] = target: MSSK1(h) (Homo sapiens, UniProt Q9UPE1)
[9] = target: T4, SGK3(h) (Homo sapiens, UniProt Q96BR1)
T4 sequence (Q96BR1 1-496): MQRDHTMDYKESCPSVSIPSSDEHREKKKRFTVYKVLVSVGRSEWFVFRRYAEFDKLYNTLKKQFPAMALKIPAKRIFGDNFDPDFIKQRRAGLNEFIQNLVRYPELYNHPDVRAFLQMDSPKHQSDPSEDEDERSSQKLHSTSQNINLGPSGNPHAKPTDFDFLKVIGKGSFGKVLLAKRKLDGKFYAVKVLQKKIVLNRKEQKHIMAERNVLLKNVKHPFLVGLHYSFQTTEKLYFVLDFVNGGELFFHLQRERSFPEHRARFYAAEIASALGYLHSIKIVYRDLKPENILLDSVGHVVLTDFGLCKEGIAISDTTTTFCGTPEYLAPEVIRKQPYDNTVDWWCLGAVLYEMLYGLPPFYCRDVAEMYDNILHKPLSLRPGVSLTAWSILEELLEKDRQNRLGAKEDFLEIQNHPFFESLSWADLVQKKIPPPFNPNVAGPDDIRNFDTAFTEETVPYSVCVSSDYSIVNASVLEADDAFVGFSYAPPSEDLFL

[10] = target: SRPK1(h) (Homo sapiens, UniProt Q96SB4)
Chain of SRPK1(h) (Q96SB4 whole entry): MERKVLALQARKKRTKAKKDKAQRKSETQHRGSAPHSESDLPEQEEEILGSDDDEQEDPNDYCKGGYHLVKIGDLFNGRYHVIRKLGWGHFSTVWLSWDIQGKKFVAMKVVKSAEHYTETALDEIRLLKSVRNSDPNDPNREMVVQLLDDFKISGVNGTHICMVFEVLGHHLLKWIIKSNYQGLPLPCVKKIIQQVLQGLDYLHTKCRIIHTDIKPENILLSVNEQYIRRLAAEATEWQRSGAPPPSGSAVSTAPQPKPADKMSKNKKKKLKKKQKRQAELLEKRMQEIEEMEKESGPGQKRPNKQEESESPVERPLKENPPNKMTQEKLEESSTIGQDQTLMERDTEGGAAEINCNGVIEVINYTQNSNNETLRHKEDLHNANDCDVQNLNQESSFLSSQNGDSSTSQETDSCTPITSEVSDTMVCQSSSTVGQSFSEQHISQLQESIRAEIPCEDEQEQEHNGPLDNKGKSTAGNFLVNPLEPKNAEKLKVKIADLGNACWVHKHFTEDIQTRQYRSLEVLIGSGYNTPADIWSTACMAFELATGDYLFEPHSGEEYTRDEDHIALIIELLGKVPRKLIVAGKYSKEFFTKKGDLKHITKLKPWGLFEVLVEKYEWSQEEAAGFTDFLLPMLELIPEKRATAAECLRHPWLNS

Chain of Tie2(Y897S)(h) (Q02763 23-1124 Y897S): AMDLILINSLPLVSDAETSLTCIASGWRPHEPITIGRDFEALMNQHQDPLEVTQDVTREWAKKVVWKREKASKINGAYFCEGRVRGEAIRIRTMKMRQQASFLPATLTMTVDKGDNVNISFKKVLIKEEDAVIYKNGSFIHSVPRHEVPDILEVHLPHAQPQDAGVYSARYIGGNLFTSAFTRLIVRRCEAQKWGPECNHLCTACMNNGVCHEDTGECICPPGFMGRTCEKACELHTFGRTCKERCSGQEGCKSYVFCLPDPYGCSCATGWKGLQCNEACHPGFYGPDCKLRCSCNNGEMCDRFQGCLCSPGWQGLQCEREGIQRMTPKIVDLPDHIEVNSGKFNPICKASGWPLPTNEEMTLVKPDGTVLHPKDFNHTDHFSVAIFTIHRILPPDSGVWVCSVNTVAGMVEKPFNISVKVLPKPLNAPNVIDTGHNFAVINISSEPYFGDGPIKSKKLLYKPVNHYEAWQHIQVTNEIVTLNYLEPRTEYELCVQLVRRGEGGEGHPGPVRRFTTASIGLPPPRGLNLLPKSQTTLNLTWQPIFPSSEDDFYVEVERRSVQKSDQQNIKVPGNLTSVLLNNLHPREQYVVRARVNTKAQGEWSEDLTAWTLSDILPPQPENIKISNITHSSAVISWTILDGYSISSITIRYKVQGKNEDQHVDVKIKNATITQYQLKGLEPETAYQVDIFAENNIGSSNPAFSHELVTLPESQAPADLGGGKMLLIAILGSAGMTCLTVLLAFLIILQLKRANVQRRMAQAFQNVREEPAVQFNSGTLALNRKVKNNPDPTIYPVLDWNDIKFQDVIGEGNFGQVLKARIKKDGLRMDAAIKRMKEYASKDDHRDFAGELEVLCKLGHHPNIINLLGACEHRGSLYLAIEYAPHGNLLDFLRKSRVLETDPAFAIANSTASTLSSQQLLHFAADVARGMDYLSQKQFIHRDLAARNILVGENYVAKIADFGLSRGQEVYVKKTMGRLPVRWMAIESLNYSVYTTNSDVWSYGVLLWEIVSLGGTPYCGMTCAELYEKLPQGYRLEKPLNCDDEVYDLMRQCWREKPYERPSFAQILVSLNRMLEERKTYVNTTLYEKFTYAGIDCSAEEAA
Chain of MSSK1(h) (Q9UPE1 whole entry): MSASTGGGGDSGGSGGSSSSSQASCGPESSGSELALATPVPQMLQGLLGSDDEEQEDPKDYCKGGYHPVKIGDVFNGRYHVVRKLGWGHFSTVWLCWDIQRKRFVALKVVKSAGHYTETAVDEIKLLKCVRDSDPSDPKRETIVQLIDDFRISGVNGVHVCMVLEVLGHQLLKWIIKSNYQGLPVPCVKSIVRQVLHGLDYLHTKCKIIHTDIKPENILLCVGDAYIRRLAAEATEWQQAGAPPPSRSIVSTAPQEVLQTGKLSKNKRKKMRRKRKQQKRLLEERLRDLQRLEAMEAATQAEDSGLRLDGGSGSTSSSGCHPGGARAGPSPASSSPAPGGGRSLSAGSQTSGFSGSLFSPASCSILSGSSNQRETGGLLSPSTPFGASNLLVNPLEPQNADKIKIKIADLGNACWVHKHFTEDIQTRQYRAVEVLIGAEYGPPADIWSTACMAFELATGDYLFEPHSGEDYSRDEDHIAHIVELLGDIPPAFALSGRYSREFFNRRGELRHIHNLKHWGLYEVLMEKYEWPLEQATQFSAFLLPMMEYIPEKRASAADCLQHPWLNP
Chain of MELK(h) (Q14680 whole entry): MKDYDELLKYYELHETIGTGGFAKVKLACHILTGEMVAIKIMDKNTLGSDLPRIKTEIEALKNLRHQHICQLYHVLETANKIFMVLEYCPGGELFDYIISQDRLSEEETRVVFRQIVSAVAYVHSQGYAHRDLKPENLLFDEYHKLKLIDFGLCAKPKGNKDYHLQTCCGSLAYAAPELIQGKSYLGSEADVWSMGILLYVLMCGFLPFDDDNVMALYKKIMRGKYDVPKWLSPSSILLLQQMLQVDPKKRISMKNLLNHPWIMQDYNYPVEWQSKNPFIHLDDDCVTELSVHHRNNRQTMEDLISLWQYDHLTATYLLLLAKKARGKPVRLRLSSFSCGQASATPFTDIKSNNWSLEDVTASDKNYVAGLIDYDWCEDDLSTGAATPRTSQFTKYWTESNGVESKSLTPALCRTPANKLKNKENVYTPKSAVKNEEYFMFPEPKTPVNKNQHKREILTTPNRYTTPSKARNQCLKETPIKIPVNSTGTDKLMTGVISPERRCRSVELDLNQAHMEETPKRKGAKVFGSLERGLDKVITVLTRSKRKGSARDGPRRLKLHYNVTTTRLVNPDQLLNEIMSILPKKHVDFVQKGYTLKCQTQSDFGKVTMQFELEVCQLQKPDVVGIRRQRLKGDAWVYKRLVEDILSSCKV
Chain of PASK(h) (Q96RG2 whole entry): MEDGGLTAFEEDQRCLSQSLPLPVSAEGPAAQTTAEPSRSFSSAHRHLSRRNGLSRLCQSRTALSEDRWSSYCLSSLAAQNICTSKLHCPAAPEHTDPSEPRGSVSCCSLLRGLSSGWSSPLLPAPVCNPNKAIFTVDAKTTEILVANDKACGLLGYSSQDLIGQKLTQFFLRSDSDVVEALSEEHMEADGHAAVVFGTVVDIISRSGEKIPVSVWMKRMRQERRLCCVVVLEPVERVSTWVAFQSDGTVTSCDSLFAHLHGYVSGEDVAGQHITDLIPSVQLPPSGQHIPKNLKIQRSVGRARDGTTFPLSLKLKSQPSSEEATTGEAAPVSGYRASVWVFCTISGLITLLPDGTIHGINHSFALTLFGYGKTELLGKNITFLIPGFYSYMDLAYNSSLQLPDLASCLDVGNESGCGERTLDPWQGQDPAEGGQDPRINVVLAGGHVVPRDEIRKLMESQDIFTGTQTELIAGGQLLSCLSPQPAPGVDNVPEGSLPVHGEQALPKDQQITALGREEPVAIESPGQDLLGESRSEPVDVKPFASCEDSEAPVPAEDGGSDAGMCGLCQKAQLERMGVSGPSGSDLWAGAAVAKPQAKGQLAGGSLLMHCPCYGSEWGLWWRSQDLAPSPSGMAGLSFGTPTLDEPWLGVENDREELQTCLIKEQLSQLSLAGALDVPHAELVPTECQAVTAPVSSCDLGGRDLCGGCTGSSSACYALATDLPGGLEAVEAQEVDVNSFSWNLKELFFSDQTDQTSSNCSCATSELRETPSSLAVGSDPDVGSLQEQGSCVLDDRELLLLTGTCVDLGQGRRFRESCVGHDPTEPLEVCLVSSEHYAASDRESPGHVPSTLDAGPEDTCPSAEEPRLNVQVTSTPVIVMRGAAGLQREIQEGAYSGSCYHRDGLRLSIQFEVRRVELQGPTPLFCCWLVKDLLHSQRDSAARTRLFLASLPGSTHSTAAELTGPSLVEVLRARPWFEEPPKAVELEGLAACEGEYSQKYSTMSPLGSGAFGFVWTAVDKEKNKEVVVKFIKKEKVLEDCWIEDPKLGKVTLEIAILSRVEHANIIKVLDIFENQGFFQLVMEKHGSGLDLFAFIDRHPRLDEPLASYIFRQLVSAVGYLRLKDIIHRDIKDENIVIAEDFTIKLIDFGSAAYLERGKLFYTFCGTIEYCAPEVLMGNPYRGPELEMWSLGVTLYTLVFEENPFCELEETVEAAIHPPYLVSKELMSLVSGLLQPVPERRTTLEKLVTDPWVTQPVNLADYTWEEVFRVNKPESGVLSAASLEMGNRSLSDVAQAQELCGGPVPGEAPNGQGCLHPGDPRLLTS

| Substance | activity at 100 µM [1] [%] | activity at 100 µM [2] [%] | activity at 100 µM [3] [%] | activity at 100 µM [4] [%] | activity at 100 µM [5] [%] | activity at 100 µM [6] [%] | activity at 100 µM [7] [%] | activity at 100 µM [8] [%] | activity at 100 µM [9] [%] | activity at 100 µM [10] [%] | % activity [1] [%] | % activity [2] [%] | % activity [3] [%] | % activity [4] [%] | % activity [5] [%] | % activity [6] [%] | % activity [7] [%] | % activity [8] [%] | % activity [9] [%] | % activity [10] [%] |
| --- | --- | --- | --- | --- | --- | --- | --- | --- | --- | --- | --- | --- | --- | --- | --- | --- | --- | --- | --- | --- |
| H-YARAAARQARAKALARQLGVAA-OH [MMI-0100] | 74 | 88 | 71 | 99 | 81 | 99 | 124 | 82 | 95 | 69 | – | – | – | – | – | – | – | – | – | – |
| HRRIKAWLKKIKALARQLGVAA (Mammalian) [MMI-0500] | – | – | – | – | – | – | – | – | – | – | 0 | 126 | 24 | 46 | 9 | 80 | 81 | 22 | -3 | 80 |
| YARAAARQARAKALNRQLGVA (Mammalian) [MMI-0200] | – | – | – | – | – | – | – | – | – | – | 59 | 153 | 57 | 98 | 60 | 85 | 152 | 100 | 58 | 93 |
